From article PMC4007151 (Nature communications, 2013)
No end group written: not given here.

Molecular target: T1, PHF1 Tudor-PHD1 (human, UniProt O43189 14-140)
T1 sequence: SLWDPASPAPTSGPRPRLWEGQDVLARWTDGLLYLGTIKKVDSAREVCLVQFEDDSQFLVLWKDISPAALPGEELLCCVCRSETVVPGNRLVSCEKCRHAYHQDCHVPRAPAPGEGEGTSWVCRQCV
Experiment: NMR titration

Binder: ATGGVK(Me3)KPHR [H3K36me3 peptide]
- binding result: binds
